Data taken from the supplement of paper PMC6757056.
± gives the standard deviation of the averaged measurements.

B1: library; a variant is named by its letters at N, in order (parent)
chain: GCUGUCACCGGUGCUUGGUACGUUAUAUUCAGCCGGUCUGAUGAGUCUNNNNNNAGACGAAACAGC

What was measured:
[1] = variants of: B1; experiment: FACS-Seq fitted mean relative fluorescence mCherry/BFP without ligand (log10 relative fluorescence); HEK293T overexpressing SLC46A1; higher = higher reporter protein expression; conditions: without (6R,S)-folinic acid; ligand present: no
Outline: (§1)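 Lentivirally transduced HEK293T libraries carried an mCherry reporter with the ribozyme switch and an EF1α-BFP marker. Transduced cells were enriched, then incubated with or without ligand for 48 h and sorted into 6 bins by mCherry/BFP. Genomic DNA from each bin was PCR-amplified, barcoded and sequenced on MiSeq. Fluorescence was the fitted normal mean of log10(mCherry/BFP) bin counts, scaled to five spiked-in control ribozymes.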

[2] = variants of: B1; experiment: normalized RNA/DNA level without ligand (relative to sTRSVctl = 100) (log10 (% of sTRSVctl)); HEK293T overexpressing SLC46A1; higher = less ribozyme self-cleavage, higher mRNA level; conditions: without (6R,S)-folinic acid; ligand present: no
Outline: (§2)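 Only sequences with at least 100 DNA reads were analyzed, from HEK293T cells transfected with 4 µg per 6-well well of ribozyme switch library plasmids 72 h before RNA extraction with EDTA. Any ligand was added 1 h before transfection. RNA level was defined as RNA over DNA reads, normalized to a spiked-in non-cleaving sequence or to the top sequences, then scaled and log-transformed. The top set was 25 sequences, and the scaling was ×100 followed by log10.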

[3] = variants of: B1; experiment: FACS-Seq fitted mean relative fluorescence mCherry/BFP with ligand (log10 relative fluorescence); HEK293T overexpressing SLC46A1; ligand concentration (+) FACS-Seq: 6 mM; higher = higher reporter protein expression; conditions: with (6R,S)-folinic acid; ligand present: yes
Outline: as §1

[4] = variants of: B1; experiment: normalized RNA/DNA level with ligand (relative to sTRSVctl = 100) (log10 (% of sTRSVctl)); HEK293T overexpressing SLC46A1; ligand concentration (+) RNA-Seq: 6 mM; higher = less ribozyme self-cleavage, higher mRNA level; conditions: with (6R,S)-folinic acid; ligand present: yes
Outline: as §2

Variant	FACS-Seq fitted mean (log10) [1]	normalized RNA/DNA level without ligand (log10) [2]	FACS-Seq fitted mean (log10) [3]	normalized RNA/DNA level with ligand (log10) [4]
UCAUGC	0.558 ± 0.075	2.038 ± 0.01	0.485 ± 0.15	2.04 ± 0.031
UCCGUG	0.0926 ± 0.016	1.78 ± 0.029	0.562 ± 0.067	1.98 ± 0.043
CCGAGC	0.201 ± 0.25	2.049 ± 0.0044	0.357 ± 0.22	2.01 ± 0.03
UCGAGU	0.379 ± 0.014	1.966 ± 0.014	0.483 ± 0.24	2.0199 ± 0.0014
GCGCUA	0.652 ± 0.016	2.067 ± 0.018	0.697 ± 0.34	2.05 ± 0.021
GCAUUA	0.539 ± 0.07	1.995 ± 0.011	0.484 ± 0.1	2.03 ± 0.028
UCCUUG	0.0329 ± 0.028	1.85 ± 0.021	0.189 ± 0.026	1.99 ± 0.033
ACAUGG	0.326 ± 0.041	1.916 ± 0.0031	0.203 ± 0.12	2.04 ± 0.046
ACCAAA	0.632 ± 0.15	2.018 ± 0.012	0.52 ± 0.14	2.017 ± 0.011
ACAUCC	0.096 ± 0.15	2.08 ± 0.018	0.0523 ± 0.006	2.03 ± 0.025
ACAUCA	0.659 ± 0.066	2.055 ± 0.0034	0.448 ± 0.075	2.05 ± 0.035
CCCCGA	-0.3459 ± 0.0019	2.028 ± 0.0046	-0.64 ± 0.16	2.02 ± 0.038
CCCUCA	0.596 ± 0.099	2.0625 ± 0.0014	0.512 ± 0.32	2.04 ± 0.038
ACGACC	0.728 ± 0.055	2.066 ± 0.015	0.641 ± 0.33	2.083 ± 0.02
ACGACG	0.261 ± 0.092	1.93 ± 0.021	0.213 ± 0.08	2.0313 ± 0.0019
ACGACA	-0.43 ± 0.011	2.015 ± 0.0095	-0.351 ± 0.72	2.045 ± 0.019
GCAUAU	-0.109 ± 0.058	1.97 ± 0.029	-0.0866 ± 0.33	2 ± 0.045
GCAUAA	0.2764 ± 0.00097	1.968 ± 0.011	0.171 ± 0.029	2 ± 0.027
GCAUAG	0.335 ± 0.0092	1.966 ± 0.017	0.466 ± 0.13	2.02 ± 0.053
UCGAAU	0.347 ± 0.072	1.932 ± 0.013	0.308 ± 0.13	2 ± 0.044
UCGAAG	-0.0439 ± 0.018	1.74 ± 0.041	-0.0157 ± 0.066	1.991 ± 0.0057
ACGCUU	-0.382 ± 0.065	2.057 ± 0.018	-0.593 ± 0.26	2.047 ± 0.0046
GCCAGG	0.43 ± 0.14	1.982 ± 0.0037	0.666 ± 0.18	2.002 ± 0.015
GCCAGA	0.385 ± 0.028	2.019 ± 0.017	0.278 ± 0.36	2.03 ± 0.021

Variant	FACS-Seq fitted mean (log10) [1]	normalized RNA/DNA level without ligand (log10) [2]	FACS-Seq fitted mean (log10) [3]	normalized RNA/DNA level with ligand (log10) [4]
GCCAGC	0.269 ± 0.003	2.0142 ± 0.00072	0.102 ± 0.14	2.02 ± 0.038
CCCUUC	0.28 ± 0.13	2.141 ± 0.0043	0.0122 ± 0.3	2.05 ± 0.035
UCAUAA	0.276 ± 0.048	1.935 ± 0.014	0.514 ± 0.034	1.96 ± 0.03
ACGAUC	0.555 ± 0.16	2.062 ± 0.0089	0.363 ± 0.0082	2.038 ± 0.0079
GCCAUG	0.2783 ± 0.0012	1.982 ± 0.019	0.209 ± 0.15	2.01 ± 0.026
ACAGUG	0.32076 ± 2.8e-05	1.732 ± 0.0061	0.629 ± 0.16	2 ± 0.028
GCGAAU	0.583 ± 0.062	2.014 ± 0.0084	0.3524 ± 0.00074	2.047 ± 0.016
GCGAAA	0.397 ± 0.13	1.977 ± 0.0092	0.39 ± 0.054	2.019 ± 0.017
GCGAAC	0.252 ± 0.064	1.951 ± 0.002	0.261 ± 0.15	2.04 ± 0.027
GCGAAG	0.477 ± 0.0095	1.947 ± 0.0035	0.576 ± 0.049	2.05 ± 0.0089
GCCUUA	0.12 ± 0.15	1.98 ± 0.027	-0.0974 ± 0.14	1.99 ± 0.037
CCAGUG	0.445 ± 0.16	2.029 ± 0.0086	0.251 ± 0.16	2.022 ± 0.0066
GCCGAG	0.418 ± 0.066	1.968 ± 0.005	0.538 ± 0.22	2.016 ± 0.02
GCCGAA	0.247 ± 0.078	2.011 ± 0.0054	0.486 ± 0.16	2.05 ± 0.022
UCGCAU	0.644 ± 0.045	1.97 ± 0.018	0.661 ± 0.25	2 ± 0.042
CCCGGU	0.139 ± 0.18	2.023 ± 0.0033	0.0649 ± 0.052	2.02 ± 0.029
UCCAGG	0.587 ± 0.23	1.976 ± 0.011	0.559 ± 0.28	2.01 ± 0.056
UCCAGA	-0.0235 ± 0.25	2.01 ± 0.0079	0.123 ± 0.14	2 ± 0.029
CCGAAG	-0.309 ± 0.021	1.869 ± 0.0079	-0.882 ± 0.26	2 ± 0.039
UCCGAG	-0.0266 ± 0.13	1.809 ± 0.011	0.131 ± 0.18	1.9932 ± 0.0011
CCCCUG	0.237 ± 0.046	2.063 ± 0.0031	0.0558 ± 0.16	2.053 ± 0.0049
CCCCUA	0.532 ± 0.01	2.052 ± 0.0066	0.388 ± 0.34	2.06 ± 0.034
UCCGCG	0.277 ± 0.014	1.842 ± 0.0081	0.502 ± 0.16	1.96 ± 0.041
GCGCAC	0.472 ± 0.12	1.99 ± 0.007	0.311 ± 0.17	2.01 ± 0.04

Variant	FACS-Seq fitted mean (log10) [1]	normalized RNA/DNA level without ligand (log10) [2]	FACS-Seq fitted mean (log10) [3]	normalized RNA/DNA level with ligand (log10) [4]
GCCAAA	0.458 ± 0.071	2.02 ± 0.017	0.495 ± 0.12	2.029 ± 0.0061
ACCGAG	0.326 ± 0.018	1.893 ± 0.018	0.47 ± 0.072	2.01 ± 0.024
ACCGAA	0.0903 ± 0.11	2.013 ± 0.0085	-0.117 ± 0.18	2.03 ± 0.043
UCCGGG	0.446 ± 0.031	2.02 ± 0.026	0.62 ± 0.13	2.05 ± 0.031
ACAUAA	-0.288 ± 0.045	1.9664 ± 0.00019	-0.603 ± 0.1	1.996 ± 0.019
ACAUAC	0.125 ± 0.085	1.992 ± 0.0001	0.387 ± 0.078	1.99 ± 0.021
UCCACG	0.0965 ± 0.072	1.921 ± 0.0076	0.23 ± 0.091	2.01 ± 0.05
ACCCGA	0.249 ± 0.044	2.017 ± 0.016	0.537 ± 0.076	2.03 ± 0.044
ACGAAA	0.141 ± 0.013	1.956 ± 0.0063	-0.0169 ± 0.14	2 ± 0.04
ACGAAG	0.365 ± 0.028	1.834 ± 0.0094	0.953 ± 0.2	1.993 ± 0.017
ACCGUU	0.123 ± 0.046	2.008 ± 0.016	-0.259 ± 0.15	2.01 ± 0.038
UCCAAG	0.322 ± 0.11	1.815 ± 0.0067	0.489 ± 0.12	1.992 ± 0.006
UCAUUG	0.0972 ± 0.14	1.876 ± 0.0017	0.304 ± 0.23	2 ± 0.05
ACCUAG	0.3338 ± 0.0029	1.956 ± 0.0051	0.37 ± 0.31	2.02 ± 0.03
ACCUAU	0.349 ± 0.089	2.019 ± 0.018	0.644 ± 0.022	2.05 ± 0.033
GCAUGA	0.25 ± 0.038	2.0186 ± 0.00041	0.168 ± 0.097	2.081 ± 0.01
CCAUGU	0.369 ± 0.014	2.035 ± 0.018	0.222 ± 0.16	2.03 ± 0.04
GCGAUG	0.371 ± 0.13	1.959 ± 0.008	0.407 ± 0.055	2.02 ± 0.043
GCGAGA	0.0695 ± 0.067	1.996 ± 0.016	0.197 ± 0.13	2.03 ± 0.018
GCGAGC	0.231 ± 0.076	2.014 ± 0.01	0.217 ± 0.14	2.036 ± 0.014
ACGCCU	-0.804 ± 0.062	2.07 ± 0.011	-1.68 ± 0.58	2.06 ± 0.046
UCGACU	0.225 ± 0.028	2.011 ± 0.0057	0.701 ± 0.28	2.01 ± 0.022
UCGAUA	0.597 ± 0.085	1.987 ± 0.0049	0.69 ± 0.34	2.02 ± 0.026
UCGAUG	0.26 ± 0.021	1.797 ± 0.015	0.486 ± 0.017	1.97 ± 0.039
